Values joined by “and” are separate entries in the source; they are usually repeats but may differ in a detail not shown here. Equal values may be shown once.
What was measured:
Abeta 1-42 monomer [1] = molecular target: Abeta 1-42 monomer (UniProt P05067); experiment: MPA, unspiked CSF background, ZW3-16 wash
Abeta 1-42 globulomer [2] = molecular target: Abeta 1-42 globulomer (UniProt P05067); experiment: MPA, globulomer Abeta 42 RLU over average Abeta 40 RLU, ASB-16 wash
Abeta 1-42 globulomer [3] = molecular target: Abeta 1-42 globulomer (UniProt P05067); experiment: MPA, CSF + 0.5 ng/mL globulomer, ZW3-16 wash
Abeta 1-42 globulomer [4] = molecular target: Abeta 1-42 globulomer (UniProt P05067); experiment: MPA, 0.5 over 0 ng/mL globulomer in CSF, ZW3-12 wash
[5] = molecular target: Abeta (1-42) aggregates from Alzheimer's Disease Brain Homogenate (human) (UniProt P05067); experiment: MPA, serial dilutions of ADBH in CSF, LoD = 2x over background
[6] = molecular target: PrPSc, prion aggregates of prion infected hamster (Syrian hamster) (UniProt P04273); experiment: cell-based or functional assay
Sequence of PrPSc, prion aggregates of prion infected hamster (Syrian hamster) (P04273 23-231 limits assumed): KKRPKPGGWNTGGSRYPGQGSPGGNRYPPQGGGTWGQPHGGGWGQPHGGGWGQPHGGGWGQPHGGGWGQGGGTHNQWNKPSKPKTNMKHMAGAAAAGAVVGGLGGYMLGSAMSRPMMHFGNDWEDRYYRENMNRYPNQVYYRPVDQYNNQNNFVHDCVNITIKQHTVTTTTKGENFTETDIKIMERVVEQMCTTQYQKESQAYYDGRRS

Abeta 1-42 globulomer [7] = molecular target: Abeta 1-42 globulomer (UniProt P05067); experiment: MPA, 0.5 over 0 ng/mL globulomer in CSF, Brij 35 wash
Abeta 1-42 globulomer [8] = molecular target: Abeta 1-42 globulomer (UniProt P05067); experiment: MPA, CSF + 0.5 ng/mL globulomer, Empigen wash
Abeta 1-42 monomer [9] = molecular target: Abeta 1-42 monomer (UniProt P05067); experiment: MPA, unspiked CSF background, ZW3-12 wash
Abeta 1-42 globulomer [10] = molecular target: Abeta 1-42 globulomer (UniProt P05067); experiment: MPA, globulomer Abeta 42 RLU over average Abeta 40 RLU, Brij 35 wash
Abeta 1-42 globulomer [11] = molecular target: Abeta 1-42 globulomer (UniProt P05067); experiment: MPA, CSF + 0.5 ng/mL globulomer, Brij 35 wash
Abeta 1-42 globulomer [12] = molecular target: Abeta 1-42 globulomer (UniProt P05067); experiment: MPA, CSF + 0.5 ng/mL globulomer, ASB-16 wash
Abeta 1-42 globulomer [13] = molecular target: Abeta 1-42 globulomer (UniProt P05067); experiment: MPA, 0.5 over 0 ng/mL globulomer in CSF, ASB-16 wash
Abeta 1-42 globulomer [14] = molecular target: Abeta 1-42 globulomer (UniProt P05067); experiment: MPA, globulomer Abeta 42 RLU over average Abeta 40 RLU, ZW3-14 wash
Abeta 1-42 globulomer [15] = molecular target: Abeta 1-42 globulomer (UniProt P05067); experiment: MPA, globulomer Abeta 42 RLU over average Abeta 40 RLU, ZW3-12 wash
Abeta 1-42 globulomer [16] = molecular target: Abeta 1-42 globulomer (UniProt P05067); experiment: MPA, CSF + 0.5 ng/mL globulomer, ZW3-14 wash
Abeta 1-42 globulomer [17] = molecular target: Abeta 1-42 globulomer (UniProt P05067); experiment: MPA, PSR1 beads, globulomer spiked into buffer (TBSTT)
Abeta 1-42 globulomer [18] = molecular target: Abeta 1-42 globulomer (UniProt P05067); experiment: MPA, CSF + 0.5 ng/mL globulomer, ZW3-12 wash
Abeta 1-42 globulomer [19] = molecular target: Abeta 1-42 globulomer (UniProt P05067); experiment: MPA, CSF + 0.5 ng/mL globulomer, ASB-C8phn wash
Abeta 1-42 monomer [20] = molecular target: Abeta 1-42 monomer (UniProt P05067); experiment: MPA, unspiked CSF background, ASB-14 wash
Abeta 1-40 monomer = Abeta 1-40 monomer (UniProt P05067); experiment: MPA bead capture, Abeta 1-40 read-out of the CSF sample (noise)
Abeta 1-42 globulomer [21] = molecular target: Abeta 1-42 globulomer (UniProt P05067); experiment: MPA, 0.5 over 0 ng/mL globulomer in CSF, Pluronic F-127 wash
Abeta 1-42 globulomer [22] = molecular target: Abeta 1-42 globulomer (UniProt P05067); experiment: MPA, pulldown in TBSTT, no added detergent wash
Abeta 1-42 globulomer [23] = molecular target: Abeta 1-42 globulomer (UniProt P05067); experiment: MPA, CSF + 0.5 ng/mL globulomer, ASB-14 wash
Abeta 1-42 globulomer [24] = molecular target: Abeta 1-42 globulomer (UniProt P05067); experiment: MPA, globulomer Abeta 42 RLU over average Abeta 40 RLU, Empigen wash
Abeta 1-42 globulomer [25] = molecular target: Abeta 1-42 globulomer (UniProt P05067); experiment: MPA, 0.5 over 0 ng/mL globulomer in CSF, ZW3-16 wash
ASPD (Abeta42 aggregate) = ASPD (Abeta42 aggregate) (UniProt P05067); experiment: MPA, serial dilutions in CSF, LoD = 2x over background
ADDL (Abeta42 aggregate) = ADDL (Abeta42 aggregate) (UniProt P05067); experiment: as above
Abeta42 fibrils = Abeta42 fibrils (UniProt P05067); experiment: as above
Abeta 1-42 globulomer [26] = molecular target: Abeta 1-42 globulomer (UniProt P05067); experiment: as above
[27] = molecular target: Abeta (1-42) aggregates from Alzheimer's Disease Brain Homogenate (human) (UniProt P05067); experiment: as above
Abeta 1-42 monomer [28] = molecular target: Abeta 1-42 monomer (UniProt P05067); experiment: MPA, unspiked CSF background, ZW3-14 wash

## PSR1 (peptoid, directly conjugated to Dynal M270 beads)
Abeta 1-42 monomer [1]
  Abeta 42 RLU, 0 ng/mL Average: 67 RLU
Abeta 1-42 globulomer [2]
  S/N Abeta 42 globulomer-spiked/Abeta 40: 2.8
Abeta 1-42 globulomer [3]
  Abeta 42 RLU, 0.5 ng/mL Average: 731 RLU
Abeta 1-42 globulomer [4]
  S/N Abeta 42 globulomer-spiked/unspiked: 7.1
[5]
  LoD (amol): < 0.2 amol
[6]
  Attack rate (Clinical TSE/total inoculated), Pool 2: 100%
  Attack rate (Clinical TSE/total inoculated), Pool 3 (pre-symptomatic): 50%
  Attack rate (Clinical TSE/total inoculated), Pool 4: 100%
  Mean incubation period (days), Pool 1: 94 dpi
  Mean incubation period (days), Pool 2: 74 dpi
  Mean incubation period (days), Pool 4: 76 dpi
  incubation period (days), Pool 3 (pre-symptomatic): 56 days and 85 days
Abeta 1-42 globulomer [7]
  S/N Abeta 42 globulomer-spiked/unspiked: 6.3
Abeta 1-42 globulomer [8]
  Abeta 42 RLU, 0.5 ng/mL Average: 670 RLU
Abeta 1-42 monomer [9]
  Abeta 42 RLU, 0 ng/mL Average: 90.7 RLU
Abeta 1-42 globulomer [10]
  S/N Abeta 42 globulomer-spiked/Abeta 40: 1
Abeta 1-42 globulomer [11]
  Abeta 42 RLU, 0.5 ng/mL Average: 741 RLU
Abeta 1-42 globulomer [12]
  Abeta 42 RLU, 0.5 ng/mL Average: 789 RLU
Abeta 1-42 globulomer [13]
  S/N Abeta 42 globulomer-spiked/unspiked: 8.2
Abeta 1-42 globulomer [14]
  S/N Abeta 42 globulomer-spiked/Abeta 40: 2.2
Abeta 1-42 globulomer [15]
  S/N Abeta 42 globulomer-spiked/Abeta 40: 1.4
Abeta 1-42 globulomer [16]
  Abeta 42 RLU, 0.5 ng/mL Average: 842 RLU
Abeta 1-42 globulomer [17]
  limit of detection (LoD): 5 pM
Abeta 1-42 globulomer [18]
  Abeta 42 RLU, 0.5 ng/mL Average: 642 RLU
Abeta 1-42 globulomer [19]
  Abeta 42 RLU, 0.5 ng/mL Average: 936 RLU
Abeta 1-42 monomer [20]
  Abeta 42 RLU, 0 ng/mL Average: 89.7 RLU
Abeta 1-40 monomer
  average RLU (40): 234 RLU
Abeta 1-42 globulomer [21]
  S/N Abeta 42 globulomer-spiked/unspiked: 6.3
Abeta 1-42 globulomer [22]
  LoD of globulomer, RLU (S/N = 2): 204 RLU
  LoD of globulomer, pg/mL (Cal): 2.34 pg/mL
  S/N at 25.3 pg/mL: 13.7
Abeta 1-42 globulomer [23]
  Abeta 42 RLU, 0.5 ng/mL Average: 779 RLU
Abeta 1-42 globulomer [24]
  S/N Abeta 42 globulomer-spiked/Abeta 40: 2.6
Abeta 1-42 globulomer [25]
  S/N Abeta 42 globulomer-spiked/unspiked: 10.9
ASPD (Abeta42 aggregate)
  LoD: 200 pg/mL
ADDL (Abeta42 aggregate)
  LoD: 200 pg/mL
Abeta42 fibrils
  LoD: 50 pg/mL
Abeta 1-42 globulomer [26]
  LoD: 75 pg/mL
[27]
  LoD: < 5 pg/mL
Abeta 1-42 monomer [28]
  Abeta 42 RLU, 0 ng/mL Average: 110 RLU

Source: patent US20130109581A1, “POSITIVELY CHARGED SPECIES AS BINDING REAGENTS IN THE SEPARATION OF PROTEIN AGGREGATES FROM MONOMERS” (priority 2009, published 2013)
